Pre-determined expression characteristics and pI data for 4 molecules are collected here from US20040170976A1, “Solubility reporter gene constructs” (priority 2000, published 2004).

A short description of series [1]: Fractionation of soluble and insoluble recombinant protein by cell lysis and centrifugation / SDS-PAGE. The series is classed as physicochemical. Particulars: T. maritima proteins expressed in E. coli; SDS-PAGE of soluble and insoluble fractions. Here is the method:
E. coli strains MG1655 (F^−lam rph1) and KY1429 (F- araD139 Δ(argF-lac)169 lam flhD5301 fruA25 relA1 rpsL150 zhh50::Tn10 rpoH606(ts) deoC1) were transformed with expression plasmids encoding M36881 (LCK) or M86400 (PLA) for expression profiling. Cells were cultured at 37° C. in Luria Broth containing ampicillin. Protein expression was induced by addition of L-arabinose to a final concentration of 0.1% for 1 hour. KY1429 cells were cultured as above except initial growth was performed at 32° C. followed by a shift to 42° C. for non-permissive expression of rpoH606. Top10 cells (F^−-mcrA Δ(mrr-hsdRMS-mcrBC) φ80lacZΔM15 ΔlacX74 deoR recA1 araD139 Δ(ara-leu)7697 galU galK rpsL endA1 nupG) containing the ibpAB promoter fusion (pHK57), were transformed with expression constructs listed above. Beta-galactosidase assays were performed essentially as described by Miller (24). Fractionation of soluble and insoluble proteins was performed by centrifugation. Cultures were resuspended in 50 mM Tris pH 7.9, 50 mM NaCl, 1 mM MgCl2, 3 mM methionine and sonicated for 2 minutes on ice. Cell debris and insoluble protein aggregates were pelleted by centrifugation at 3000×g for 15 minutes. The soluble fraction was removed and the pellets resuspended in an equivalent volume of lysis buffer.

Series [2] is described as follows: pI of T. maritima proteins. The series is classed as physicochemical, Thermotoga maritima.

B1: TM0574: T. maritima S-adenosylmethionine tRNA ribosyltransferase (queA) (protein, UniProt Q9WZ44 1-335, looked up)
S-adenosylmethionine:tRNA …: MKVSEFDYELPPELIAQEPVEPRDASRLMVLHRKTQRIEHRIFREIIEYLEPGDLLVLNVSKVIPARLYARKKTGASIEILLIERLEEGIWKCLVRPGQKVKKGTELVIDEDLSAVCLGRGEDGTRILKFQPQDDRLIFEKGRTPLPPYIKNEVPLERYQTVYAKEEGSVAAPTAGLHFTPELIEKLKKKGVQFAEVVLHVGIGTFRPVKVEEVEKHKMHEEFYQVPKETVRKLRETRERGNRIVAVGTTTVRTLETIARLPEQEEYVGKTDLFIYPPFEFKLVDALVTNFHLPRSTLLMLVAAFAGKDFVMEAYREAVKRRYRFFSFGDAMLIL
With B1, the pre-determined expression characteristics result in series [1] was “Soluble”. The pI in series [2] is 8.61.

B2: TM0688: T. maritima glyceraldehyde-3-phosphate dehydrogenase (gap) (protein, UniProt P17721 2-333, looked up)
Glyceraldehyde-3-phosphate …: ARVAINGFGRIGRLVYRIIYERKNPDIEVVAINDLTDTKTLAHLLKYDSVHKKFPGKVEYTENSLIVDGKEIKVFAEPDPSKLPWKDLGVDFVIESTGVFRNREKAELHLQAGAKKVIITAPAKGEDITVVIGCNEDQLKPEHTIISCASCTTNSIAPIVKVLHEKFGIVSGMLTTVHSYTNDQRVLDLPHKDLRRARAAAVNIIPTTTGAAKAVALVVPEVKGKLDGMAIRVPTPDGSITDLTVLVEKETTVEEVNAVMKEATEGRLKGIIGYNDEPIVSSDIIGTTFSGIFDATITNVIGGKLVKVASWYDNEYGYSNRVVDTLELLLKM
Regarding B2, the pre-determined expression characteristics entry in series [1] is listed as “Insoluble”. In series [2], this molecule gave a pI of 6.21.

B3: TM0556: T. maritima 3-isopropylmalate dehydrogenase (leuB) (protein, UniProt Q9WZ26 1-354, looked up)
3-isopropylmalate …: MKIAVLPGDGIGPEVVREALKVLEVVEKKTGKTFEKVFGHIGGDAIDRFGEPLPEETKKICLEADAIFLGSVGGPKWDDLPPEKRPEIGGLLALRKMLNLYANIRPIKVYRSLVHVSPLKEKVIGSGVDLVTVRELSYGVYYGQPRGLDEEKGFDTMIYDRKTVERIARTAFEIAKNRRKKVTSVDKANVLYSSMLWRKVVNEVAREYPDVELTHIYVDNAAMQLILKPSQFDVILTTNMFGDILSDESAALPGSLGLLPSASFGDKNLYEPAGGSAPDIAGKNIANPIAQILSLAMMLEHSFGMVEEARKIERAVELVIEEGYRTRDIAEDPEKAVSTSQMGDLICKKLEEIW
Consider B3, for which the pre-determined expression characteristics result in series [1] is given as “Soluble”. The pI in series [2] is 5.44.

B4: TM0294: T. maritima glutamate 5-kinase (proB) (protein, UniProt Q9WYD0 1-353, looked up)
Glutamate 5-kinase: MIMKVVVKVGSNLLVGSSGLRKSYIAELCREVARLKSQGHEISIITSGARAAGFTYLGKGKRTQDLHIKQALCAVGQVQLMKVYENAFDFYGIKIAQILLTRDTFSNRKRYLNLRNTLIGLSEFDVVPIVNENDTVATEEITLGDNDTLAAMFSIAWDADFLVLFTTVDGVIDENGKLVERFDESVKLKDMGKSSWGTGGIRSKIESALMASRCGVKATICSGNDVSNLTRFVKGEPVGTVFEPQGRLKAKKAWIAFLSEPAGKIYVNKGAEEALKSGNSLLPVGVTGVEGTFDVGDVVEIVNEEGELVGRGIVNYSSSDLEKIAGHKSSDLKKILGYEGNKVVVHIDNMWVA
As for B4, in series [2], the pI amounted to 6.92.
